The nature of the data set: soluble fraction after stress (log2 fold change); higher = more stays soluble; pooled small domains, quantitative proteomics. The following applies: stress: 50 degC. The essentials:
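Pooled custom libraries of small protein domains were each held under stress at 50°C. The read-out, high-throughput quantitative proteomics, tracked how much of each protein stayed soluble. This is reported as a base-two log fold change used to indicate aggregation propensity. Higher values mean more protein remains in solution.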
Turning to “HMPGSGELSRRLELAIRDRTAVRVTAAAAGQERSFTLLPVAITSGRLRATDEQAGVQRTLPLSAIVAVEA”, the “soluble fraction (log2)” value was -0.0911.
In the case of “HMRNTPQRRHAILALLSEQGEVSVDALAKRFSTSEVTIRKDLAAMESHGLLLRRYGGAVPMPQELI” it was -0.928; in that of “HMDYTGIPQSLLDLMKKDNIMPMQIQRAVAERNYYPVDTPISNYDPMFIEAKLVGAWDQVLNVISHLDLP”, -0.649; in that of “HMQAGPEDIIRAKLKTAMPEAQIISIRPTPAGLYQVNAKGYESVFVTADGRYLFQGDLLEIQGDRIVNL”, -0.123.
In the case of “HMSMLSQERQSLILDIIKEQGSVTVTRLTEILQSSESTVRRDLSYLASKGKINKVHGGATALG”, the “soluble fraction (log2)” value is -0.206.
In the case of “HMFPELSEEEQIIVSLLQKQPDGLQINTLVVESNIPVNRMSGILFELEMKGIIRMAAGGVYRLL” it was -0.203.
Consider “HMHTPSGALLSAIEKEWGSFDNFKKEFTTAATSLFGSGWVWLAKDKKGKLYILSENNAGNPITKGYTPILG”, for which the “soluble fraction (log2)” value is -0.262.
Regarding “HMVSRKIENPYWANKEKQHIIAEFFYPDTNKRVTASIMNDGSNRDYEEILRGYSIEQIDANTNRRLEER”, the “soluble fraction (log2)” value turned out to be 0.436.
“HMHVSLADQAYKTIRTNILNLTYPPGTQLTEAKLASDLNMSRSPVRTAIKMLQADGLLVSDYYKSMTVK”: the “soluble fraction (log2)” value was -0.514.
In the case of “HMSDLVATKEQVVEAYKYGLGLGLDNSTLKMLLFDIRGEDVADQDKISDGMTVSEIEIWKEGMRTIAEEYL” it was -0.508.
In the case of “HMTRILTEDDIVNFLIRQPDTAYIIAKSFNENERKVKELLDLLIKKNKVREEIVNGVVSYAVN” it was -0.199; in that of “HMVRSKLEIVPVPEDAVVKIAGLKRLTYQAYQNEDVPYMVYKNGYEAQSGTVFMDTDKTLTVTLEESP”, -0.0311.
Regarding “HMYAMTAEDWIVSGNRKYINDDLQGAIADYTKAIEIDPNYAAIYLVRGKAKYELKNYQGAIEDYTKAIE”, the “soluble fraction (log2)” value is -1.13.
Regarding “HMSVDDVALRLEFGPSDAEALAFVHRHGAILSETTDRDTGVVSVHVRLSEADAGRFNQRYGV”, the “soluble fraction (log2)” value is -0.183.
For “HMNYGDVIEGQIMHVDRDELLVDIGSKSEGIIPAREFSTLTDEERAALSVGDHVLVFVVQAENQEGQAV”, the “soluble fraction (log2)” value was determined as 0.0712.
In the case of “HMAGWMPGGTNPAEPGRFAVLMDVDDSDAYKHMFLRWNGHAWEFERTRVLVKMEPSWWMRLPDDPEKP” it was -1.99; in that of “HMVNDDTIAATEAEILALLADKHRHHITELNSIRRPYEQIDAALSSLINEEKIFQEDGMLFV”, 0.144; in that of “HMQRRHESTPIPADFDYAAVRGLSAEVQQKLERVRPLSIGQAQRIPGMTPAAISLLLVHLERQRRSRV”, -0.152.
In the case of “HMAQLSDDEQAIIDTITRRGDATMSELIASVNVSTPRLMSMLIDMEFRSLITALPGGRYQIRLIN” it was -0.912; in that of “HMESLNDRIKLVFKDSGLTQMDISKRLNIAQSSVSGIISGKANPSKRTLADIADRFDVNLEWLRDGTGPMK”, 0.337.
In the case of “HMTSEVLTNATIVKMVKAKLSDDIIIDEINNARVNFDVSPEGIKSLTAQNVTEPVIETMKKAVAAQESI” it was 0.479.
Consider “HMDRETEEYELIRAKLEWLYQKQTGTIRNQTAKILHHLEIAKEEGNYYLYLKIKEEAKQWLVQASMYLD”, for which the “soluble fraction (log2)” value is -0.231.
“HMSEPFDMAVPLTSGGRRLDQVLAELLPQHSRNRLQGWIRDGLLTLDGVTVTEPKRKLAGGEQLALLLP”: the “soluble fraction (log2)” value is -0.13.
In the case of “HMQLTQEAIENLFKITTAKKFREELEKLVVTDSEKKAFAYFTVYHPKLKELPFAILKSVENYTGISI” it was -0.871; in that of “HMNAYEVLIPNIYIGQRVDQTLASLFPQFSRSRLQNWLARGNLLIDGEIIKPKTKVLGGEQIIILDT”, -1.83.
In the case of “HMVPEEEATKISVQNVGASDYNFTVKGVQANDPTLTLVRGKTYEFDVTSLGHPFWIKTQKVTGSSSQY”, the “soluble fraction (log2)” value turned out to be 0.1.
As for “HMTKDYVVIYEGLAQTEAVEILGKLQEMGVSAKVDHNDSILVLKDEEDQIRMALATEGYPKS”, the “soluble fraction (log2)” value was -0.0917.
Take “HMSGNPLDTYYSKWSAEIKKGSPNAVISKEGDKYYVSIPGENRMAIIYENPHLIRMVNATRNIHVE”: the “soluble fraction (log2)” value is -0.168.
In the case of “HMIGPYAAAKLMTNKDFVKWLSGGVEKSVFNPNSFGQHIRRLVQISEVNPDIRDEINAVVQGLTQ” it was -0.361; in that of “HMKNHIEERRKARGMTQQQLASELGVSRQTIISLENGKYNPSILLAHSIARLFGERIEDIFILR”, -1.6; in that of “HMGVTVDEVHRNFESGMNVVHKKFGAGVVDSFDEGKIRINFDGVIKVFIADVLINSGMLESVSYTH”, -0.212.
For “HMTNYNTEKIIPEEQAGKRLDVVLANIFPEFSRSRLKNWIIDGFILVDGKVLRPRDFVTGGELVSIDVIV”, the “soluble fraction (log2)” value is -0.1.
To “HMERPKSLRELALEHLRNSIIDGSLKMGQVLSERKISEELGVSKSPVREALAQLRDEGLVSIEPQKGARV” belongs 0.213; to “HMNNQIFGLKFRQLRKQQHITLAKAAAGITSRQSLGNWETGKGELAFEKVLLLLKKINVQPIDFLESSIS”, -3.67.
To “HMGSLRSALDGIPGIGEQYQKRLLAQFGSVKAMRSASVEDFEAVRGIGRAKAQALYDALHAG” belongs -0.131; to “HMVTIEEMMDRLLTRVQRAVNMSFSEFSGEAKEKVEVIVSFLALLELVKQGAVDVLQHENFSDIRIENT”, -0.857.
In the case of “HMDTIGSKVLAFLAGNLLDPTPFNYRFGYLYLNRTSKVIVEETDTYIDSGMRMTQEAVAEIMQKFAQ” it was -3.9.
With “HMQISNEEELEKIIENVIESNPEKVKAYQSGKSGLIGFFMGQVMKESGGQANPNLVNQILKGKL”, the “soluble fraction (log2)” value turned out to be 0.202.
Regarding “HMAESTRSRILNAAIEMMETGGESSVRLSAIAEALGIKEPSIYHHFTNRTELVNAAYIEWYW”, the “soluble fraction (log2)” value was -0.0152.
To “HMPDFAENAVYGKQREDSLYAHAYKHFQLGDTTTVRAAEHLSAEIYPLGQHRPKFMFLNAVTR” belongs 0.0766; to “HMTKTKADKIDYAIGDSGTEPPTEDKWTDLAHLPLIKAGQFQWTRRTEYYSDGSTAVSYNIAKSE”, 0.0286.
In the case of “HMTDLDVAVTMTVALEEAVNGATRRVRLPNGKELNVKIPAGVAAGQQIRLKGQGETAPGHRPGDVLITVNI” it was -0.262; in that of “HMSMEIQEIIRQLREKNDWSQEDMAERVGLSKNGYAKIERGETNLNLERLEQIANLFDLSVIDLIEMS”, -0.796; in that of “HMDLMQRVIIVRPVMQGDYLTRAHLGLQTLSRNGGGGFTDIDDLVGRRAKKSLRAGLVVHNRHL”, -0.694.
To “HMPGKVSDAGATAKDNRLFLEAVFWRVRTGSPWRDLPPAFGHWNSQFRRFRRWAKAGVFESLFNA” belongs 0.0893.
For “HMGGLIDQSIQEIIDKYSVPGKKIQKAQRLKIVAEMHTKGIFKMRGGVQQAAQALGVTRYTVYNDLEVMN”, the “soluble fraction (log2)” value was -2.89.
To “HMAIPTTDSDKATDAQIKQIKLLGDIHPNLKLDAWLERNHVTWETLTREQAGNMMKAIKNKYGD” belongs -0.00881; to “HMTGKLGKIILQPKQTVYGITKKYQISESELRRLNPQLDSHLKIGDEVILPAENIKKFGGNQPVAVS”, 0.311.
In the case of “HMNNLSEELNVTFPRTRDQLLNILHYVQHKYGYISKVSMQEIGNHIKMPVSEIYGTVTSYSEFKI” it was -1.54; in that of “HMLARFSGIALNTWTQADVERTFGPPMLVERVARFDGDIWTYRFMDDYEPRMAHIHIDRAGTVRQLVF”, -2.77; in that of “HMAQSLAQKINNYILTNRSSIANVAKSIGYSRTTVSRYLAGKYDSDPTDLENKLAEFLAHETGE”, 0.076.
To “HMNSQSGKGGVGYILETKYGLNLPPKMREAMGYAAKGVSDHLHKELHPDEIFDLFKKTFENVGQPYS” belongs -0.0272; to “HMSRKERERSQHRRDILAAGEKIFAQKGYFNATIEEIAREAEFSVGTIYNFFSNKETLYQEIIRSI”, -0.298.
Consider “HMAFDGIVLKNITNALKELINGKINKIQQSSKDNLTLSIYNQKSYNLYIDISANNYRVNLTTHSE”, for which the “soluble fraction (log2)” value worked out at 0.103.
As to “HMTGKVKWYDADKGFGFVTEDGGRDVYVRKSALPQGVETLKAGQRLEFGIAEGRRGPQALSVR”, the “soluble fraction (log2)” value came out at 0.0817.
To “HMGEQVFSRKDLAINGNDLKAVFGWPPGPKYREALDQLFHWVLEDPARNRRETLLAYLHSLYD” belongs -0.0199.
To “HMQNYNLTQQEKKVLQLLVSGKSYKMIAAELNVAFDTVKSHITNIYSKLHVHSGTEAVSVAIRDKI” belongs -0.444; to “HMGNAQELQKKLEGLKGISGIEKLESDHYAEKYLVRITQPVDHKNPAAGTFTQRVIVAHVGFDRPTILVT”, 0.511; to “HMGGTATDYYNQGRTAYDVGDYNGALMNFQEAVRLDPRYGEAYYGLGKAYEALNMQNQALDAYLSAI”, -0.16.
In the case of “HMVITQVSTTQTDTTFQYHKVKPKETLFSISRLYEVSIDEIKTINPALNSRELMAGELLKLPIK” it was -0.0212; in that of “HMLDLNEVEFYAIENQLKENLKIDSKRFYELVPLIKGYQEDDIIQVLRWLIDNNRIIRHKDESLTWHS”, -1.61.
On to “HMQDRDKNVPAGKELLDNEIARLNMSLKQVEQFALPRYNLKTLEDLYSGIGSGDIRLNHLINFLQSKLI”, for which the “soluble fraction (log2)” value was -0.135.
In the case of “HMGNNSIDIKDVIYNLVEISQLQAFDIVKHFKTWENLVNKPDELDTVIDGDSDIVDRIKYKIKSLS” it was 0.109; in that of “HMLDQGTQSRYQIMDGVRALITGDWSSHGAGLVRELSQEVARTSGLTATSERTFFVPFSALS”, 0.0364.
Regarding “HMINLGDLEVGHTYHTRMPILQNDLKYSHKSPIQIVAEHSIVYGVRVYIGFLNEHRVLVTADDV”, the “soluble fraction (log2)” value amounted to 0.0223.
To “HMGGKAITGGEGEIIIRADKAETVAIYGIDGRLVHRVSTEAGDTKRVSVPAGIYIVKGAKVVV” belongs no less than 0.62.
Consider “HMGSLGRAIRSRREKMKVGLEELAAKTGLSESHISDIEEGRGFAPVGDILKIARALTIDPGELLK”, for which the “soluble fraction (log2)” value was 0.361.
In the case of “HMNVDSLIGKKARVLEDIDNLNAKGQVSIDGMEWTARSEDGSEIKKDALVEVVAIEGVKAIVKQ”, the “soluble fraction (log2)” value is 0.0709.
In the case of “HMAIGERIRFLRTLRRMTQKELGLAAGFPEKNASIRMAQYENGTRTPKAELTAVLAEILKVSPQALTV” it was -1.2.

The values above are taken from the domain aggregation screens of Martell et al. (2025).
